Literature values as cited in patent US20180221339A1, “COMPOSITIONS AND METHODS FOR TREATING AND DIAGNOSING OCULAR DISORDERS” (TRANSLATUM MEDICUS, INC., priority 2015, published 2018).

Target: T1, complement factor D (CFD) (Homo sapiens, UniProt P00746)
T1 construct: host or cells: patients (endogenous protein, in vivo)
Conditions: phase II study, 18 month period; most robust in patients with complement factor H and I polymorphisms

T1 sequence (P00746 26-253): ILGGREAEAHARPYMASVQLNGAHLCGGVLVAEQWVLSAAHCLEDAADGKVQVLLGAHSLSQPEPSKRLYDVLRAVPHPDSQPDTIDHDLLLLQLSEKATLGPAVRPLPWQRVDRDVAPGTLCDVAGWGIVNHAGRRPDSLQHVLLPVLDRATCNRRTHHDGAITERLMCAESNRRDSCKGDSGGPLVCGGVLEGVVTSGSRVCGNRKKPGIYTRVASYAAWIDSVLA

Lampilizumab: complement factor D (CFD) inhibitor; anti-factor D antibody (Genentech)
growth (expansion) of geographic atrophy: can slow the growth, i.e. expansion, of geographic atrophy
